# Data taken from patent US20090111745A1 (DOMANTIS, published 2009).
# Where a chain is given by its changes, count along the chain named.
# B1: DOM7m-12 (other)
# VL: DIQMTQSPSSLSASVGDRVTITCRASQSIFRHLKWYQQKPGKAPKLLIYAASRLQSGVPSRFSGSGSGTDFTLTISSLQPEDFATYYCQQVALYPKTFGQGTKVEIKR
# notes: also called MSA 12
# B2: DOM7r-1 (other)
# VL: DIQTTQSPSSLSASVGDRVTITCRASQYIGRYLRWYQQKPGKAPKLLIYDSSVLQSGVPSRFSGSGSGTDFTLTISSLQPEDFATYYCQQRYRMPYTFGQGTRVEIKR
# B3: DOM7h-8 (other)
# VL: DIQMTQSPSSLSASVGDRVTITCRASQSISSYLNWYQQKPGKAPKLLIYRNSPLQSGVPSRFSGSGSGTDFTLTISSLQPEDFATYYCQQTYRVPPTFGQGTKVEIKR
# B4: DOM7h-7 (other)
# VL: B3 VL with P53Q, Y92F, R93A
# B5: DOM7h-1 (other)
# VL: B3 VL with P53F, R93T, R108Q
# notes: also called DOM7-1
# Legend:
# [1] = molecular target: T1, mouse serum albumin (mouse, UniProt P07724 25-608); assay: phage display selection on albumin (figure legend)
# T1 construct: also called MSA
# [2] = molecular target: T2, rat serum albumin (rat, UniProt P02770 25-608); assay: BIACORE, RSA flow cell (Fc=3), fit of the single trace at 15n analyte, row 'Fc=3 -3'; KD cell shaded [contd.]
# T2 construct: also called RSA
# Description: (§1) dAbs that bound serum albumin on a BIACORE chip (Biacore AB) were then further analysed to obtain information on affinity. The analysis was performed using a CM5 chip (carboxymethylated dextran matrix) that was coated with serum albumin. Flow cell 1 was an uncoated, blocked negative control, flow cell 2 was coated with HSA, flow cell 3 was coated with RSA and flow cell 4 was coated with MSA. The serum albumins were immobilised in acetate buffer pH 5.5 using the BIACORE coating wizard which was programmed to aim for 500 resonance units (RUs) of coated material. Each dAb of interest was expressed in the periplasm of E. coli on a 200 mL-500 mL scale and purified from the supernatant using batch absorption to protein A-streamline affinity resin (Amersham, UK) for the VH_{^S} and to protein L-agarose affinity resin (Affitech, Norway) for the Vκs followed by elution with glycine at pH 2.2 and buffer exchange to PBS. A range of concentrations of dAb were prepared (in the range 5 nM to 5 μM) by dilution into BIACORE HBS-EP buffer and flowed across the BIACORE chip.
# [3] = molecular target: T2, rat serum albumin; assay: BIACORE, RSA flow cell (Fc=3), fit of the single trace at 10n analyte, row 'Fc=3 -4'; KD cell shaded [contd.]
# Description: (§2) dAbs that bound serum albumin on a BIACORE chip (Biacore AB) were then further analysed to obtain information on affinity. The analysis was performed using a CM5 chip (carboxymethylated dextran matrix) that was coated with serum albumin. Flow cell 1 was an uncoated, blocked negative control, flow cell 2 was coated with HSA, flow cell 3 was coated with RSA and flow cell 4 was coated with MSA. The serum albumins were immobilised in acetate buffer pH 5.5 using the BIACORE coating wizard which was programmed to aim for 500 resonance units (RUs) of coated material. […] A range of concentrations of dAb were prepared (in the range 5 nM to 5 μM) by dilution into BIACORE HBS-EP buffer and flowed across the BIACORE chip.
# [4] = molecular target: T2, rat serum albumin; assay: BIACORE, RSA flow cell (Fc=3), fit of the single trace at 25n analyte, row 'Fc=3 -1' [contd.]
# Description: as §1
# [5] = molecular target: T2, rat serum albumin; assay: BIACORE, RSA flow cell (Fc=3), fit of the single trace at 25n analyte, row 'Fc=3 -1'; KD cell shaded [contd.]
# Description: as §2
# [6] = molecular target: T2, rat serum albumin; assay: BIACORE, RSA flow cell (Fc=3), fit of the single trace at 20n analyte, row 'Fc=3 -2'; KD cell shaded [contd.]
# Description: as §1
# [7] = molecular target: T2, rat serum albumin; assay: BIACORE, RSA flow cell (Fc=3), fit of the single trace at 5n analyte, row 'Fc=3 -5'; KD cell shaded [contd.]
# Description: as §1
# [8] = molecular target: T2, rat serum albumin; assay: BIACORE, RSA flow cell (Fc=3), fit of the single trace at 10n analyte, row 'Fc=3 -4' [contd.]
# Description: as §1
# [9] = molecular target: T2, rat serum albumin; assay: BIACORE SPR, albumin on a CM5 chip, dAb in solution
# Description: as §1
# [10] = molecular target: T1, mouse serum albumin; assay: table of affinities (KD); BIACORE on serum albumin-coated chip according to Example 1;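 note: surface plasmon resonance with dAbs flowed over a chip carrying human, rat or mouse serum albumin, blocked uncoated flow cell as reference, KD from on- and off-rate curve fits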
# Description: as §1
# [11] = molecular target: T2, rat serum albumin; assay: as above
# Description: as §1
# [12] = molecular target: T3, human serum albumin (human, UniProt P02768 25-609); assay: as above
# T3 construct: also called HSA; HAS
# Description: as §1
# [13] = molecular target: T2, rat serum albumin; assay: BIACORE, RSA flow cell (Fc=3), fit of the single trace at 20n analyte, row 'Fc=3 -2' [contd.]
# Description: as §1
# [14] = molecular target: T2, rat serum albumin; assay: BIACORE, RSA flow cell (Fc=3), fit of the single trace at 15n analyte, row 'Fc=3 -3' [contd.]
# Description: as §1
# [15] = molecular target: T2, rat serum albumin; assay: BIACORE, RSA flow cell (Fc=3), fit of the single trace at 5n analyte, row 'Fc=3 -5' [contd.]
# Description: as §1
# [16] = molecular target: T3, human serum albumin; assay: method not stated there (BIACORE SPR in Example 1); reference value given inside prophetic Example 10
# [17] = molecular target: porcine serum albumin (porcine, UniProt P08835 25-607); assay: method not stated in the legend (BIACORE SPR for the other affinities)
# porcine serum albumin, sequence (P08835 25-607 limits assumed): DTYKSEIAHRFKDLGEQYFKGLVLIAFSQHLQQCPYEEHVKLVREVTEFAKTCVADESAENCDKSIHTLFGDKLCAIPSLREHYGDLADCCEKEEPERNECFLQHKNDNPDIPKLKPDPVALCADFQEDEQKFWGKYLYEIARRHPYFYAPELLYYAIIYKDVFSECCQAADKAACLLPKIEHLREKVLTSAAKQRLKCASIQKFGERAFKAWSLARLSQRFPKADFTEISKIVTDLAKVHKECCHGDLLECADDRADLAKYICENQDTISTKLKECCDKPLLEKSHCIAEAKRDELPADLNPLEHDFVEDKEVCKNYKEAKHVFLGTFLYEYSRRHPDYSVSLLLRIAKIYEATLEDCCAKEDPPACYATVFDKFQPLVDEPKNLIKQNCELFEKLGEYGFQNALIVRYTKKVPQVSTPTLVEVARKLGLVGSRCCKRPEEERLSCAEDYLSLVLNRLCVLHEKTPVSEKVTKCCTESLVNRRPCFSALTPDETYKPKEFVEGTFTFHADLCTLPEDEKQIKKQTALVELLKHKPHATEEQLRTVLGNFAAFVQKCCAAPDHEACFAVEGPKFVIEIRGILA
# [18] = molecular target: T3, human serum albumin; assay: BIACORE SPR, albumin on a CM5 chip, dAb in solution
# Description: as §1
# [19] = molecular target: T3, human serum albumin; assay: BIACORE, HSA flow cell (Fc=2), fit of the single trace at 1000n analyte, row 'Fc=2 - 44' [contd.]
# Description: as §1
# [20] = molecular target: T3, human serum albumin; assay: BIACORE, HSA flow cell (Fc=2), fit of the single trace at 5000n analyte, row 'Fc=2 - 41'; KD cell not shaded [contd.]
# Description: as §1
# [21] = molecular target: T3, human serum albumin; assay: BIACORE, HSA flow cell (Fc=2), fit of the single trace at 3000n analyte, row 'Fc=2 - 42' [contd.]
# Description: as §1
# [22] = molecular target: T3, human serum albumin; assay: BIACORE, HSA flow cell (Fc=2), fit of the single trace at 62.5n analyte, row 'Fc=2 - 48'; KD cell shaded [contd.]
# Description: as §2
# [23] = molecular target: T3, human serum albumin; assay: BIACORE, HSA flow cell (Fc=2), fit of the single trace at 2000n analyte, row 'Fc=2 - 43'; KD cell not shaded [contd.]
# Description: as §1
# [24] = molecular target: T3, human serum albumin; assay: BIACORE, HSA flow cell (Fc=2), fit of the single trace at 1000n analyte, row 'Fc=2 - 44'; KD cell not shaded [contd.]
# Description: as §1
# [25] = molecular target: T3, human serum albumin; assay: BIACORE, HSA flow cell (Fc=2), fit of the single trace at 250n analyte, row 'Fc=2 - 46' [contd.]
# Description: as §1
# [26] = molecular target: T3, human serum albumin; assay: BIACORE, HSA flow cell (Fc=2), fit of the single trace at 125n analyte, row 'Fc=2 - 47'; KD cell shaded [contd.]
# Description: as §1
# [27] = molecular target: T3, human serum albumin; assay: BIACORE, HSA flow cell (Fc=2), fit of the single trace at 3000n analyte, row 'Fc=2 - 42'; KD cell not shaded [contd.]
# Description: as §1
# [28] = molecular target: T3, human serum albumin; assay: BIACORE, HSA flow cell (Fc=2), fit of the single trace at 5000n analyte, row 'Fc=2 - 41' [contd.]
# Description: as §2
# [29] = molecular target: T3, human serum albumin; assay: BIACORE, HSA flow cell (Fc=2), fit of the single trace at 500n analyte, row 'Fc=2 - 45' [contd.]
# Description: as §1
# [30] = molecular target: T3, human serum albumin; assay: BIACORE, HSA flow cell (Fc=2), fit of the single trace at 62.5n analyte, row 'Fc=2 - 48' [contd.]
# Description: as §1
# [31] = molecular target: T3, human serum albumin; assay: BIACORE, HSA flow cell (Fc=2), fit of the single trace at 2000n analyte, row 'Fc=2 - 43' [contd.]
# Description: as §1
# [32] = molecular target: T3, human serum albumin; assay: BIACORE, HSA flow cell (Fc=2), fit of the single trace at 125n analyte, row 'Fc=2 - 47' [contd.]
# Description: as §1
# [33] = molecular target: T3, human serum albumin; assay: BIACORE, HSA flow cell (Fc=2), fit of the single trace at 250n analyte, row 'Fc=2 - 46'; KD cell shaded [contd.]
# Description: as §1
# [34] = molecular target: T3, human serum albumin; assay: BIACORE, HSA flow cell (Fc=2), fit of the single trace at 500n analyte, row 'Fc=2 - 45'; KD cell shaded [contd.]
# Description: as §1
# [35] = molecular target: T3, human serum albumin; assay: BIACORE, HSA flow cell (Fc=2), fit of the single trace at 500n analyte, row 'Fc=2 - 5' [contd.]
# Description: as §1
# [36] = molecular target: T3, human serum albumin; assay: BIACORE, HSA flow cell (Fc=2), fit of the single trace at 1000n analyte, row 'Fc=2 - 4' [contd.]
# Description: as §1
# [37] = molecular target: T3, human serum albumin; assay: BIACORE, HSA flow cell (Fc=2), fit of the single trace at 250n analyte, row 'Fc=2 - 6' [contd.]
# Description: as §1
# [38] = molecular target: T3, human serum albumin; assay: BIACORE, HSA flow cell (Fc=2), fit of the single trace at 2000n analyte, row 'Fc=2 - 3' [contd.]
# Description: as §1
# [39] = molecular target: T3, human serum albumin; assay: BIACORE, HSA flow cell (Fc=2), fit of the single trace at 500n analyte, row 'Fc=2 - 5'; KD cell shaded [contd.]
# Description: as §2
# [40] = molecular target: T3, human serum albumin; assay: BIACORE, HSA flow cell (Fc=2), fit of the single trace at 250n analyte, row 'Fc=2 - 6'; KD cell shaded [contd.]
# Description: as §2
# [41] = molecular target: T3, human serum albumin; assay: BIACORE, HSA flow cell (Fc=2), fit of the single trace at 2000n analyte, row 'Fc=2 - 3'; KD cell shaded [contd.]
# Description: as §1
# [42] = molecular target: T3, human serum albumin; assay: BIACORE, HSA flow cell (Fc=2), fit of the single trace at 1000n analyte, row 'Fc=2 - 4'; KD cell shaded [contd.]
# Description: as §1
binder,measurement,setting,value
B1,binding result,[1],binds
B2,Kd,[2],0.0131 µM
same,Kd,[3],0.011 µM
same,Ka,[4],9.35e+07 M⁻¹
same,koff,[4],0.0345 s⁻¹
same,kon,[4],3.23e+06 M⁻¹ s⁻¹
same,Kd,[5],0.0107 µM
same,Kd,[6],0.0119 µM
same,Kd,[7],0.0163 µM
same,Ka,[8],9.07e+07 M⁻¹
same,koff,[8],0.0316 s⁻¹
same,kon,[8],2.87e+06 M⁻¹ s⁻¹
same,Kd,[9],0.01 to 0.1 µM
same,binding result,[10],no binding
same,Kd,[11],0.015 µM
same,binding result,[12],no binding
same,Ka,[13],8.41e+07 M⁻¹
same,koff,[13],0.0344 s⁻¹
same,kon,[13],2.89e+06 M⁻¹ s⁻¹
same,Ka,[14],7.62e+07 M⁻¹
same,koff,[14],0.0331 s⁻¹
same,kon,[14],2.52e+06 M⁻¹ s⁻¹
same,Ka,[15],6.12e+07 M⁻¹
same,koff,[15],0.0316 s⁻¹
same,kon,[15],1.93e+06 M⁻¹ s⁻¹
B3,Kd,[16],0.07 µM
same,Kd,[17],0.06 µM
same,Kd,[9],0.1 to 0.5 µM
same,Kd,[18],0.01 to 0.1 µM
same,Kd,[10],0.2 µM
same,Kd,[11],0.12 µM
B4,Ka,[19],5.93e+06 M⁻¹
same,koff,[19],0.105 s⁻¹
same,kon,[19],623000 M⁻¹ s⁻¹
same,Kd,[20],9710 µM
same,Ka,[21],22100 M⁻¹
same,koff,[21],0.106 s⁻¹
same,kon,[21],2350 M⁻¹ s⁻¹
same,Kd,[22],0.2 µM
same,Kd,[23],0.43 µM
same,Kd,[24],0.169 µM
same,Ka,[25],2.83e+06 M⁻¹
same,koff,[25],0.0998 s⁻¹
same,kon,[25],283000 M⁻¹ s⁻¹
same,Kd,[26],0.662 µM
same,Kd,[27],45.1 µM
same,Kd,[18],0.1 to 0.5 µM
same,koff,[28],0.107 s⁻¹
same,Ka,[29],2.93e+06 M⁻¹
same,koff,[29],0.103 s⁻¹
same,kon,[29],302000 M⁻¹ s⁻¹
same,Kd,[10],> 5 µM
same,Kd,[11],> 5 µM
same,Kd,[12],0.4 µM
same,Ka,[30],5.01e+06 M⁻¹
same,koff,[30],0.1 s⁻¹
same,kon,[30],501000 M⁻¹ s⁻¹
same,Ka,[31],2.33e+06 M⁻¹
same,koff,[31],0.108 s⁻¹
same,kon,[31],251000 M⁻¹ s⁻¹
same,Ka,[32],1.51e+06 M⁻¹
same,koff,[32],0.0946 s⁻¹
same,kon,[32],143000 M⁻¹ s⁻¹
same,Kd,[33],0.353 µM
same,Kd,[34],0.341 µM
B5,Ka,[35],2.33e+06 M⁻¹
same,koff,[35],0.0481 s⁻¹
same,kon,[35],112000 M⁻¹ s⁻¹
same,Ka,[36],2.85e+06 M⁻¹
same,koff,[36],0.0523 s⁻¹
same,kon,[36],149000 M⁻¹ s⁻¹
same,Ka,[37],1.03e+06 M⁻¹
same,koff,[37],0.0486 s⁻¹
same,kon,[37],50100 M⁻¹ s⁻¹
same,Ka,[38],1.05e+06 M⁻¹
same,koff,[38],0.0539 s⁻¹
same,kon,[38],56300 M⁻¹ s⁻¹
same,Kd,[39],0.429 µM
same,Kd,[18],0.5 to 5 µM
same,Kd,[10],> 5 µM
same,Kd,[11],> 5 µM
same,Kd,[12],0.8 µM
same,Kd,[40],0.97 µM
same,Kd,[41],0.957 µM
same,Kd,[42],0.351 µM
